This note sets out measurements from the Immune Epitope Database (IEDB).

Usually Kd stands for the free concentration of one partner at which half of the binding sites on the other are occupied at equilibrium, for simple one-to-one binding.

Some results are limits rather than exact numbers.

Test in all cases: IEDB peptide-MHC binding, purified MHC/competitive/radioactivity; filed as Kd, often an IC50 or EC50 that approximates it; ≥ and ≤ were set here for values at or beyond the usual limits of such assays
What all share (details): source organism: Plasmodium falciparum 3D7

For assay [1], the target named is HLA-A*03:01.
For assay [2], the target named is HLA-A*11:01.
In assay [3] the target is HLA-A*31:01.
The target in assay [4] is HLA-A*33:01.
The target in assay [5] is HLA-A*68:01.
Assay [6] addresses HLA-A*01:01.
Assay [7] concerns the target HLA-A*26:01.
Assay [8] has as its target HLA-A*29:02.
Assay [9] deals with HLA-A*30:02.
Assay [10] concerns the target HLA-A*23:01.

Consider AFLESQSMNK, for which the Kd in assay [1] is 3060 nM; in assay [2], 1090 nM; in assay [3], 9890 nM; in assay [4] it was at least 10000 nM; in [5], at least 10000 nM.
Consider ALERLLSLK, for which the Kd was 233 nM in assay [1]; 369 nM in assay [2]; 3430 nM in assay [3]; at least 10000 nM in assay [4]; at least 10000 nM in assay [5].
ALERLLSLKK: the Kd in assay [1] is 147 nM; in assay [2], 822 nM; in assay [3], at least 10000 nM; in [4], at least 10000 nM; in [5], at least 10000 nM.
For the sequence ALKISQLQK, the Kd in assay [1] is 15 nM; in assay [2] it was 96 nM; in assay [3], 3200 nM; in [4] it was at least 10000 nM; in assay [5], at least 10000 nM.
Consider AVSEIQNNK, for which the dissociation constant (Kd) is 25 nM in assay [1]; 11 nM in assay [2]; 1430 nM in assay [3]; at least 10000 nM in [4]; 14 nM in assay [5].
Consider ELEASISGKY, for which the dissociation constant (Kd) in [6] is 142 nM; in [7] it was 23 nM; in [8] it was at least 10000 nM; in assay [9], 463 nM.
Regarding ELFDKDTFFK, the dissociation constant Kd in assay [1] was found to be 144 nM; in assay [3] it was 3680 nM; in [4] it was 13 nM; in [5] it was 3.6 nM.
Take EQRLPLLPK: the Kd was 1090 nM in assay [1]; 765 nM in assay [2]; 423 nM in assay [3]; 987 nM in assay [4]; 1910 nM in [5].
The matching figures for FISFYLINK: 19 nM, 9 nM, 2190 nM, 1460 nM and 18 nM.
As to FQAAESNERY, the Kd in [6] came to 8960 nM; in assay [7] it was 3510 nM; in assay [8], 1780 nM; in assay [9] it was 372 nM.
For the sequence FSYDLRLNK, the Kd in [1] is 29 nM; in assay [2], 4.9 nM; in [3], 461 nM; in assay [4] it was 1260 nM; in assay [5] it was 15 nM.
As for FVSSIFISFY, the Kd in [6] came out at 118 nM; in [7] it was 11 nM; in assay [8], 22 nM; in assay [9], 84 nM.
Regarding GTMYILLKK, the Kd is 2.2 nM in assay [1]; 1.2 nM in assay [2]; 29 nM in [3]; 8450 nM in assay [4]; 3.1 nM in assay [5].
As for HLNIPIGFK, the dissociation constant Kd is 2.3 nM in assay [1], 1.3 nM in assay [2], 183 nM in [3] and 2.8 nM in [5].
Consider IALLIIPPK, for which the Kd in assay [1] came to 1240 nM; in assay [2] it was 108 nM; in [3], 2930 nM; in assay [4], 1400 nM; in [5] it was 1960 nM.
IFISFYLINK: the dissociation constant Kd in assay [1] was found to be 1990 nM; in [2] it was 1060 nM; in [3], 462 nM; in [4], 394 nM; in assay [5], 363 nM.
As for IFLRFIPDK, the Kd was 2440 nM in assay [1]; 1280 nM in [2]; 1640 nM in assay [3]; 1310 nM in [4]; at least 10000 nM in [5].
Take IIALLIIPPK: the dissociation constant (Kd) in [1] was 30 nM; in assay [2], 5.3 nM; in assay [3], at least 10000 nM; in [4], 8430 nM; in assay [5], 82 nM.
The matching figures for ILCIEGEQK: 1400 nM, 641 nM, 7530 nM, at least 10000 nM and 526 nM.
Consider IYYFDGNSW, for which the figures for the Kd in [10], in assay [8] and in assay [9] were 6.1 nM, 3100 nM and 3020 nM, respectively.
On to KILIKIPVTK, for which the Kd in [2] is 60 nM; in [3], 1660 nM; in assay [4], at least 10000 nM; in assay [5], at least 10000 nM.
As to KINSNFLLK, the Kd was 17 nM in [1]; 6.4 nM in assay [2]; 68 nM in [3]; at least 10000 nM in assay [4]; 2740 nM in [5].
For the sequence KSMLKELIK, the Kd is 189 nM in [1]; 151 nM in [2]; 450 nM in assay [3]; at least 10000 nM in assay [4]; at least 10000 nM in assay [5].
Regarding LFDKDTFFK, the Kd worked out at 931 nM in [1]; 167 nM in assay [2]; 5710 nM in assay [3]; 1190 nM in assay [4]; 101 nM in assay [5].
As to LQMMNVNLQK, the Kd in assay [1] was found to be 25 nM; in [2], 7.2 nM; in assay [3], 435 nM; in assay [4], 1110 nM; in assay [5], 320 nM.
LTNHLINTPK: the dissociation constant (Kd) in assay [1] is 11 nM; in assay [2], 5.9 nM; in assay [3], 62 nM; in assay [4], 373 nM; in [5], 10 nM.
Regarding MQSSFFMNR, the Kd in [2] was 1.1 nM; in [3], 29 nM; in [4], 75 nM; in assay [5] it was 3.8 nM.
Turning to NIFLRFIPDK, the Kd was at least 10000 nM in [1]; 2120 nM in assay [2]; at least 10000 nM in assay [3]; 1090 nM in assay [4]; 1530 nM in assay [5].
For PVLTSLFNK, the Kd in assay [1] was 1950 nM; in assay [2], 25 nM; in assay [3], 5110 nM; in assay [4], at least 10000 nM; in assay [5], at least 10000 nM.
PVVCSMEYK: the Kd in [1] is 1940 nM; in assay [2], 80 nM; in assay [3], at least 10000 nM; in assay [4] it was at least 10000 nM; in [5], 414 nM.
For the sequence QQNQESKIMK, the Kd in assay [1] was 3470 nM; in assay [2], 77 nM; in [3], at least 10000 nM; in [4], at least 10000 nM; in assay [5] it was at least 10000 nM.
For the sequence RLPLLPKTWK, the Kd in assay [1] was 11 nM; in [3], 340 nM; in assay [4], at least 10000 nM; in assay [5], 2890 nM.
Take RYQDPQNYEL: the figures for the equilibrium dissociation constant (Kd) in assay [10], in assay [8] and in assay [9] were 124 nM, at least 10000 nM and 84 nM, respectively.
For SISGKYDIK, the Kd in assay [1] is 2090 nM; in assay [2], 50 nM; in assay [3] it was at least 10000 nM; in assay [4], at least 10000 nM; in assay [5] it was 1740 nM.
Regarding SQDLACIFDA, the dissociation constant (Kd) in assay [1], in [2], in assay [3], in assay [4] and in assay [5] was at least 10000 nM in each case.
In the case of SQVSNSDSYK, the Kd in assay [1] is 1660 nM; in assay [2], 83 nM; in [3], at least 10000 nM; in assay [4], at least 10000 nM; in assay [5], 1380 nM.
As to SSFDIKSEVK, the dissociation constant (Kd) in assay [1] is 1900 nM; in assay [2], 19 nM; in [3], at least 10000 nM; in assay [4], at least 10000 nM; in [5] it was 31 nM.
SSPLFNNFY: the values for the Kd in assay [6], in assay [7] and in assay [9] were 117 nM, 17 nM and 41 nM, respectively.
For the sequence SSPLFNNFYK, the Kd was 100 nM in assay [1]; 0.74 nM in [2]; 1610 nM in [3]; 1730 nM in [4]; 6.3 nM in assay [5].
Take TFLESSFDIK: the Kd is at least 10000 nM in assay [1]; 2510 nM in assay [2]; at least 10000 nM in [3]; at least 10000 nM in [4]; at least 10000 nM in assay [5].
TTRYKYLNK: the Kd in assay [1] was 117 nM; in [2], 848 nM; in [3], 416 nM; in assay [4], 652 nM; in [5], 2560 nM.
Regarding VVCSMEYKK, the equilibrium dissociation constant (Kd) in assay [1] is 443 nM; in assay [2], 54 nM; in [3] it was 891 nM; in [4] it was at least 10000 nM; in assay [5], 167 nM.
The matching figures for YLFNQHIKK: 14 nM, 7.8 nM, 4920 nM, 7970 nM and 14 nM.
The like results for YLINKHWQR were, in that order, 1030 nM, 676 nM, 4.4 nM, 7.7 nM and 3.7 nM.
YQNFQNADK: the Kd in assay [1] is 2710 nM; in assay [2] it was 177 nM; in assay [3], at least 10000 nM; in assay [4], at least 10000 nM; in [5], at least 10000 nM.
Take YYNNFNNNY: the Kd in assay [10] worked out at 126 nM; in assay [9], 58 nM.
